± gives the uncertainty stated by the source.
Experiment: self-splicing fitness, log relative to wild type (ln ratio); higher = more splicing; Tetrahymena group I intron in knt gene, E. coli kanamycin selection, DiMSum; sequences stand for … in CUCUCU…GGAGGGAAAAGUUAUCAGGCAUGCACCUGGUAGCUAGUCUUUAAACCAAUAGAUUGCAUCGGUUUAAAAGGCAAGACCGUCAAAUUGCGGGAAAGGGGUCAACAGCCGUUCAGUACCAAGUCUCAGGGGAAACUUUGAGAUGGCCUUGCAAAGGGUAUGGUAAUAAGCUGACGGACAUGGUCCUAACCACGCAGCCAAGUCCUAAGUCAACAGAUCUUCUGUUGAUAUGGAUGCAGUUCACAGACUAAAUGUCGGUCGGGGAAGAUGUAUUCUUCUCAUAAGAUAUAGUCGGACCUCUCCUUAAUGGGAGCUAGCGGAUGAAGUGAUGCAACACUGGAGCCGCUGGGAACUAAUUUGUAUGCGAAAGUAUAUUGAUUAGUUUUGGAGUACUCGUGGUCG
Outline: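 DiMSum derived fitness as the error-weighted combination of fold changes across replicates, kanamycin versus no kanamycin, normalised to wild type. E. coli BL21(DE3) held the library, which randomised all eight P1ex-region intron nucleotides within the knt kanamycin-resistance gene on pET-22b(+). Six replicate transformations grew overnight at 37°C or 30°C on LB agar with or without 25 μg/mL kanamycin, also containing 100 μg/mL carbenicillin, 50 μM IPTG and 0.2% rhamnose, and pooled colonies were amplicon-sequenced on an Illumina HiSeq 2500.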

Row | Sequence | self-splicing fitness (ln) (30 °C) | self-splicing fitness (ln) (37 °C)
1 | ACCUAGCAAUAUUACGGAUG | -2.77 ± 0.11 | -1.24 ± 0.09
2 | ACCUAGCAAUAUUACGGCCC | -0.812 ± 0.18 | -0.39 ± 0.24
3 | ACCUAGCAAUAUUACGGCUC | -0.922 ± 0.1 | -0.468 ± 0.14
4 | ACCUAGCAAUAUUACGUAUA | -1.6 ± 0.1 | -1.46 ± 0.12
5 | ACCUAGCAAUAUUACGUGGA | -2.36 ± 0.093 | -1.62 ± 0.084
6 | ACCUAGCAAUAUUACGUUGA | -1.98 ± 0.087 | -1.54 ± 0.098
7 | ACGAAGCAAUAUUACGAAUG | -1.51 ± 0.11 | -2.67 ± 0.18
8 | ACGAAGCAAUAUUACGAGCU | -1.56 ± 0.12 | -0.76 ± 0.11
9 | ACGAAGCAAUAUUACGAUCC | -1.12 ± 0.1 | -0.136 ± 0.14
10 | ACGAAGCAAUAUUACGCAUG | -1.79 ± 0.062 | -0.62 ± 0.083
11 | ACGAAGCAAUAUUACGCCAA | -2.55 ± 0.31 | -1.98 ± 0.23
12 | ACGAAGCAAUAUUACGCCUG | -0.445 ± 0.095 | 0.217 ± 0.12
13 | ACGAAGCAAUAUUACGCGCC | -0.967 ± 0.1 | 0.356 ± 0.14
14 | ACGAAGCAAUAUUACGCGGU | -3.65 ± 0.18 | -1.48 ± 0.1
15 | ACGAAGCAAUAUUACGGAGA | -2.86 ± 0.2 | -2.42 ± 0.22
16 | ACGAAGCAAUAUUACGGAUU | -1.86 ± 0.087 | -1.67 ± 0.11
17 | ACGAAGCAAUAUUACGGCGC | -0.589 ± 0.086 | -0.278 ± 0.12
18 | ACGAAGCAAUAUUACGGGCG | -1.15 ± 0.072 | -0.126 ± 0.1
19 | ACGAAGCAAUAUUACGUAGU | -3.12 ± 0.12 | -2.13 ± 0.17
20 | ACGAAGCAAUAUUACGUAUC | -4.38 ± 0.27 | -2.66 ± 0.22
21 | ACGAAGCAAUAUUACGUCGG | -1.67 ± 0.1 | -1.65 ± 0.11
22 | ACGAAGCAAUAUUACGUGUU | -2.94 ± 0.07 | -1.81 ± 0.07
23 | ACGAAGCAAUAUUACGUUAA | -3.25 ± 0.22 | -2.09 ± 0.14
24 | ACGAAGCAAUAUUACGUUCG | -1.3 ± 0.083 | -0.906 ± 0.11

Row | Sequence | self-splicing fitness (ln) (30 °C) | self-splicing fitness (ln) (37 °C)
25 | ACGAAGCAAUAUUACGUUGU | -2.95 ± 0.14 | -1.86 ± 0.12
26 | ACGCAGCAAUAUUACGACUC | -0.833 ± 0.08 | 0.365 ± 0.096
27 | ACGCAGCAAUAUUACGAGGU | -3.55 ± 0.17 | -2.27 ± 0.16
28 | ACGCAGCAAUAUUACGAUGG | -1.82 ± 0.097 | -1.59 ± 0.13
29 | ACGCAGCAAUAUUACGCAAG | -2.25 ± 0.081 | -0.638 ± 0.091
30 | ACGCAGCAAUAUUACGCACU | -0.177 ± 0.08 | 0.479 ± 0.11
31 | ACGCAGCAAUAUUACGCAGA | -2.74 ± 0.18 | -1.92 ± 0.12
32 | ACGCAGCAAUAUUACGCAUC | -2.1 ± 0.11 | -1.47 ± 0.16
33 | ACGCAGCAAUAUUACGCCUG | -2.79 ± 0.2 | -2.42 ± 0.33
34 | ACGCAGCAAUAUUACGCGCC | -2.5 ± 0.15 | -3.01 ± 0.27
35 | ACGCAGCAAUAUUACGCUAG | -3.42 ± 0.22 | -2.33 ± 0.24
36 | ACGCAGCAAUAUUACGCUGA | -0.604 ± 0.095 | -0.835 ± 0.11
37 | ACGCAGCAAUAUUACGCUGG | -2.25 ± 0.12 | -1.48 ± 0.14
38 | ACGCAGCAAUAUUACGCUGU | -2.71 ± 0.14 | -3.83 ± 0.28
39 | ACGCAGCAAUAUUACGGCGU | -3.68 ± 0.16 | -2.23 ± 0.14
40 | ACGCAGCAAUAUUACGGGGA | -2.28 ± 0.091 | -2.14 ± 0.1
41 | ACGCAGCAAUAUUACGGGGU | -4.68 ± 0.22 | -2.34 ± 0.12
42 | ACGCAGCAAUAUUACGUACA | -2.03 ± 0.11 | -0.547 ± 0.12
43 | ACGCAGCAAUAUUACGUAGG | -2.12 ± 0.096 | -2.86 ± 0.13
44 | ACGCAGCAAUAUUACGUGCC | -1.7 ± 0.11 | -0.959 ± 0.12
45 | ACGCAGCAAUAUUACGUGGG | -3.55 ± 0.13 | -2.37 ± 0.12
46 | ACGCAGCAAUAUUACGUGUG | -2.86 ± 0.11 | -2.31 ± 0.12
47 | ACGCAGCAAUAUUACGUGUU | -4.19 ± 0.1 | -2.85 ± 0.14

Source: the supplement of paper PMC7877785
